The values that follow come from US20210238249.

Data set [1] concerns the target fusion protein TOM70-(GGGGS)3-UB-p53 (UniProt P07213).
The target in data set [2] is recombinant fusion protein TOM70-UB-p53 (UniProt P07213).

Regarding UBP1 enzyme, the “cleavage of the ubiquitin sequence by UBP1, 37 C for 1 hour, SDS-PAGE” value in data set [1] was “the 3′ end of ubiquitin was cleaved by UBP1 enzyme, and only p53 protein was dissociation as expected”; in data set [2] it was “the dissociation of the ubiquitin protein from the fusion protein did not occur at all by UBP1”.
